Measured values published in PMC6650474, “Plasmodium myosin A drives parasite invasion by an atypical force generating mechanism” (Nature Communications, 2019).
Substitutions are numbered along the chain they refer to. In names and notes the source's numbering stands.

B1: Full-length PfMyoA (Plasmodium falciparum myosin A) heavy chain, wild type, co-expressed with the light chains PfMTIP and PfELC (complex)
chain 1: MAVTNEEIKTASKIVRRVSNVEAFDKSGSVFKGYQIWTDISPTIENDPNIMFVKCVVQQGSKKEKLTVVQIDPPGTGTPYDIDPTHAWNCNSQVDPMSFGDIGLLNHTNIPCVLDFLKHRYLKNQIYTTAVPLIVAINPYKDLGNTTNEWIRRYRDTADHTKLPPHVFTCAREALSNLHGVNKSQTIIVSGESGAGKTEATKQIMRYFASSKSGNMDLRIQTAIMAANPVLEAFGNAKTIRNNNSSRFGRFMQLVISHEGGIRYGSVVAFLLEKSRIITQDDNERSYHIFYQFLKGANSTMKSKFGLKGVTEYKLLNPNSTEVSGVDDVKDFEEVIESLKNMELSESDIEVIFSIVAGILTLGNVRLIEKQEAGLSDAAAIMDEDMGVFNKACELMYLDPELIKREILIKVTVAGGTKIEGRWNKNDAEVLKSSLCKAMYEKLFLWIIRHLNSRIEPEGGFKTFMGMLDIFGFEVFKNNSLEQLFINITNEMLQKNFVDIVFERESKLYKDEGISTAELKYTSNKEVINVLCEKGKSVLSYLEDQCLAPGGTDEKFVSSCATNLKENNKFTPAKVASNKNFIIQHTIGPIQYCAESFLLKNKDVLRGDLVEVIKDSPNPIVQQLFEGQVIEKGKIAKGSLIGSQFLNQLTSLMNLINSTEPHFIRCIKPNENKKPLEWCEPKILIQLHALSILEALVLRQLGYSYRRTFEEFLYQYKFVDIAAAEDSSVENQNKCVNILKLSGLSESMYKIGKSMVFLKQEGAKILTKIQREKLVEWENCVSVIEAAILKHKYKQKVNKNIPSLLRVQAHIRKKMVAQ
chain 2: MKQECNVCYFNLPDPESTLGPYDNELNYFTWGPGFEYEPEPQRKPLSIEESFENSEESEESVADIQQLEEKVDESDVRIYFNEKSSGGKISIDNASYNARKLGLAPSSIDEKKIKELYGDNLTYEQYLEYLSICVHDKDNVEELIKMFAHFDNNCTGYLTKSQMKNILTTWGDALTDQEAIDALNAFSSEDNIDYKLFCEDILQ
chain 3: MASDMEEKFREAFILFSSCSDHIEMYKFFELMNSFGIILTNDEKAALPNDINMDYWLNFAKKHYNYEQPFKHINNVNEQNTNVQIKIDNFLGIMKALDTRLTESDLNILLQITNPENKSTLNLKTVSQKLTESI
modifications: phosphoserine at 19 (96 ± 1% of the peptides); biotin on the biotin carboxyl carrier protein segment
B2: ΔN version of full-length PfMyoA heavy chain (residues Ala2 through Ser19 removed), co-expressed wit (complex)
chain 1: MNVEAFDKSGSVFKGYQIWTDISPTIENDPNIMFVKCVVQQGSKKEKLTVVQIDPPGTGTPYDIDPTHAWNCNSQVDPMSFGDIGLLNHTNIPCVLDFLKHRYLKNQIYTTAVPLIVAINPYKDLGNTTNEWIRRYRDTADHTKLPPHVFTCAREALSNLHGVNKSQTIIVSGESGAGKTEATKQIMRYFASSKSGNMDLRIQTAIMAANPVLEAFGNAKTIRNNNSSRFGRFMQLVISHEGGIRYGSVVAFLLEKSRIITQDDNERSYHIFYQFLKGANSTMKSKFGLKGVTEYKLLNPNSTEVSGVDDVKDFEEVIESLKNMELSESDIEVIFSIVAGILTLGNVRLIEKQEAGLSDAAAIMDEDMGVFNKACELMYLDPELIKREILIKVTVAGGTKIEGRWNKNDAEVLKSSLCKAMYEKLFLWIIRHLNSRIEPEGGFKTFMGMLDIFGFEVFKNNSLEQLFINITNEMLQKNFVDIVFERESKLYKDEGISTAELKYTSNKEVINVLCEKGKSVLSYLEDQCLAPGGTDEKFVSSCATNLKENNKFTPAKVASNKNFIIQHTIGPIQYCAESFLLKNKDVLRGDLVEVIKDSPNPIVQQLFEGQVIEKGKIAKGSLIGSQFLNQLTSLMNLINSTEPHFIRCIKPNENKKPLEWCEPKILIQLHALSILEALVLRQLGYSYRRTFEEFLYQYKFVDIAAAEDSSVENQNKCVNILKLSGLSESMYKIGKSMVFLKQEGAKILTKIQREKLVEWENCVSVIEAAILKHKYKQKVNKNIPSLLRVQAHIRKKMVAQ
chain 2: B1 chain 2
chain 3: B1 chain 3
modifications: biotin on the biotin carboxyl carrier protein segment
B3: Full-length PfMyoA heavy chain K764E (charge reversal in the converter), co-expressed with the light chains PfMTIP and PfELC (complex)
chain 1: B1 chain 1 with K764E
chain 2: B1 chain 2
chain 3: B1 chain 3
modifications: biotin on the biotin carboxyl carrier protein segment
B4: Full-length PfMyoA heavy chain S19A (phospho-null), co-expressed with the light chains PfMTIP and PfELC (complex)
chain 1: B1 chain 1 with S19A
chain 2: B1 chain 2
chain 3: B1 chain 3
modifications: biotin on the biotin carboxyl carrier protein segment

biological target: Skeletal muscle actin (chicken, UniProt P68139 1-377); experiment: cell-based or functional assay

Q: With B1 as the binder, how does the “Km for skeletal actin of the actin-activated ATPase activity (Michaelis-Menten fit, 30 °C, 5 mM KCl)” value (“Km for skeletal actin” below) read?
A: The value was 30.3 µM.

Q: B2 was tested. Which “Km for skeletal actin” value did it give?
A: The value was 7.34 µM.

Q: For B3, which “Km for skeletal actin” value is on record?
A: Its value is 18.2 µM.

Q: For B4, which “Km for skeletal actin” value is on record?
A: The value was 8.5 µM.
